Drawing on patent publication US20190145987A1 (UNIVERSIT LIBRE DE BRUXELLES, published 2019), this text covers Kd for 1 molecule.

In the test the target is human DPP6 protein (human, UniProt P42658 117-865, limits assumed). Put plainly: affinity versus the human DPP6 protein; method not stated.
Sequence of human DPP6 protein (P42658 117-865 limits assumed): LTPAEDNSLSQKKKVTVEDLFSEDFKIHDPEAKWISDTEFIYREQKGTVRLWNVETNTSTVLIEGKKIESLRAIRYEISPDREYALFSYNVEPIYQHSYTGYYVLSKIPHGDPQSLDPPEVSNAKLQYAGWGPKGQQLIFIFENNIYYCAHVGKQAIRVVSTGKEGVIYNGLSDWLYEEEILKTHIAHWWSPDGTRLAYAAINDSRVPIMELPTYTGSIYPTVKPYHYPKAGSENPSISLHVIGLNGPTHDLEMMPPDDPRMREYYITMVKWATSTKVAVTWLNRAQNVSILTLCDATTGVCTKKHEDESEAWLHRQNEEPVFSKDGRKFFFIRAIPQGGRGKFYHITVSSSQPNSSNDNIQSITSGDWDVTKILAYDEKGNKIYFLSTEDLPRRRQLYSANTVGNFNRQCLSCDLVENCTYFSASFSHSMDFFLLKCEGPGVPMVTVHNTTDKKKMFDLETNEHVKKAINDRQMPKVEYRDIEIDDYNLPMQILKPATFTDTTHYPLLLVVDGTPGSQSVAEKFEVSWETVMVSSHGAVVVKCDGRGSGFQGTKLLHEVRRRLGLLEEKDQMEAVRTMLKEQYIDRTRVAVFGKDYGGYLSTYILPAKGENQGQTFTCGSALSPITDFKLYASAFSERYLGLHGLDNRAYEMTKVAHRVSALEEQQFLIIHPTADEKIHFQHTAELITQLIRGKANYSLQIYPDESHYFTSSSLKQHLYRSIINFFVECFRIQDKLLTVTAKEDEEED

B1: nanobody 4hD29 (VHH)
VHH: QVQLQESGGGLVQPGGSLRLSCAASGFTFSSNYMTWVRQAPGKGPEWVSGINPDGSSTYYADSVKGRFTISRDNAKNTLYLQMNSLKSEDTALYKCATGAAPRIPTTLRGQGTQVTVSS
notes: also called Nb 4hD29; 4hD29 Nb
In general, Kd refers to the equilibrium constant for the complex coming apart. A higher Kd goes with a looser complex. B1 yielded a Kd of 1.2 nM.
